Target: p300 (UniProt Q09472 1-2414)
Assay: ELISA

p300, sequence (Q09472 whole entry): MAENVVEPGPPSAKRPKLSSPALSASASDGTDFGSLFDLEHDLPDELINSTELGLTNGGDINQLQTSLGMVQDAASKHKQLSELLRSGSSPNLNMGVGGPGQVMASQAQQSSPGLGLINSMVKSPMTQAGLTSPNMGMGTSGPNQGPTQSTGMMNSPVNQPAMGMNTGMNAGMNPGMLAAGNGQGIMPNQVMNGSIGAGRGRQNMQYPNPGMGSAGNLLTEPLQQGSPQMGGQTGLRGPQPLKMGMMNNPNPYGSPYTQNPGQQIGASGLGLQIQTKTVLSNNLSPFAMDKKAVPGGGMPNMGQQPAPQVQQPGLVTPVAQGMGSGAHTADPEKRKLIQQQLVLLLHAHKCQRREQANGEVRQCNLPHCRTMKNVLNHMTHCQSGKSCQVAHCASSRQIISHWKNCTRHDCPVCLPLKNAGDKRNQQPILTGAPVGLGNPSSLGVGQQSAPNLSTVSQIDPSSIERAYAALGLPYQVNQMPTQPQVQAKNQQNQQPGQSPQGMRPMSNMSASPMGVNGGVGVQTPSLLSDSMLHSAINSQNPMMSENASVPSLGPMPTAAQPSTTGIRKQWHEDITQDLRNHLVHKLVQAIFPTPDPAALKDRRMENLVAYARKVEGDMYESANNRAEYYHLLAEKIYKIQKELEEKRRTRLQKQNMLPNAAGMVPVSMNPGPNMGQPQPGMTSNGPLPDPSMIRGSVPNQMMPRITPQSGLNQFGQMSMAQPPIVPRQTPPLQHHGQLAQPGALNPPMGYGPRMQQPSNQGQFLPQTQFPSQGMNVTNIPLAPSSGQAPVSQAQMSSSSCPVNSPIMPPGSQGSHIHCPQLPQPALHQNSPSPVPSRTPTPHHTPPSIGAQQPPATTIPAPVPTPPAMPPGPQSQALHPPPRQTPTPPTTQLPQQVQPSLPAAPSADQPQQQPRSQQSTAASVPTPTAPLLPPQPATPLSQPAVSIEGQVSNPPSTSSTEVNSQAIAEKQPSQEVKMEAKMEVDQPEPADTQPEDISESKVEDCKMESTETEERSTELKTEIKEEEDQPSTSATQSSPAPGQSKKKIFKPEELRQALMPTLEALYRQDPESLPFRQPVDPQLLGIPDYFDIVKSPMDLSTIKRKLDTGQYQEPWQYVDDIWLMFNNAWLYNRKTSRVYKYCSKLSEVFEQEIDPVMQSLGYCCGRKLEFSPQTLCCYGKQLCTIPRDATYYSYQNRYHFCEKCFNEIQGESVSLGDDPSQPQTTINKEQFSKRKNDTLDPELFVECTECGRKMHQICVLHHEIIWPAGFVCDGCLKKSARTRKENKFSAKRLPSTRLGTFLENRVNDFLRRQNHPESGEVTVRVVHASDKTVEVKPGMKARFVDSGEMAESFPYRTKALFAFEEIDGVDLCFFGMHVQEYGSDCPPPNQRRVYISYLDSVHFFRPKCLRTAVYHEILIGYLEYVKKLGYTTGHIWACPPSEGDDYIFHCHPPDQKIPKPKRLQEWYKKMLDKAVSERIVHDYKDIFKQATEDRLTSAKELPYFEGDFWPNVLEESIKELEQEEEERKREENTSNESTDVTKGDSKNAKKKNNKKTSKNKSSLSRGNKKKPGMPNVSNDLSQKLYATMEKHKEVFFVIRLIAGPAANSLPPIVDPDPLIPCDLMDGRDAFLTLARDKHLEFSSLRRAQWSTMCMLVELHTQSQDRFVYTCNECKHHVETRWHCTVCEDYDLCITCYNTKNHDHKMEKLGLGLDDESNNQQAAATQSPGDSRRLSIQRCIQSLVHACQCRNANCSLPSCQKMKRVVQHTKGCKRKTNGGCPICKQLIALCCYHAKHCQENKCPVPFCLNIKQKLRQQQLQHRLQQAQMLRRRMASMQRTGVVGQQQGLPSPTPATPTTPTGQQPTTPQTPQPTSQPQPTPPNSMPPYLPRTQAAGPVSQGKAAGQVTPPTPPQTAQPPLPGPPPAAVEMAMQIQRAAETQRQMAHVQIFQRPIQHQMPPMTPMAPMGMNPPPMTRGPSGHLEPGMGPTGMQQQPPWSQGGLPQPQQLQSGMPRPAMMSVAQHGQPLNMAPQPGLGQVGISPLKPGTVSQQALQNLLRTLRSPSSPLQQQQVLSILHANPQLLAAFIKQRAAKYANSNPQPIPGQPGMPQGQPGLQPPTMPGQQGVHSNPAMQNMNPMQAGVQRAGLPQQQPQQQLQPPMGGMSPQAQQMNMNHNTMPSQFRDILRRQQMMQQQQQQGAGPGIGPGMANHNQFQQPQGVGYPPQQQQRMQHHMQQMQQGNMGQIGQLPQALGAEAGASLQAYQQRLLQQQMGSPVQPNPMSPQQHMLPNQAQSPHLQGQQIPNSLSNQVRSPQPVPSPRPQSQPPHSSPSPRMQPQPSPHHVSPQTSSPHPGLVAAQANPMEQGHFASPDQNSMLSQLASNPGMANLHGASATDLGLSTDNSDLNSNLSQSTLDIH

B1: HIF1α C-terminal transactivation domain, HIF1α_(786–826) (domain or fragment, UniProt Q16665 786-826, looked up)
chain: SMDESGLPQLTSYDCEVNAPIQGSRNLLQGEELLRALDQVN
Kd: 0.0145 µM
